Our source for the Kd values is article PMC2137936, “Molecular Analysis of Thymopentin Binding to HLA-DR Molecules” (PLoS ONE, 2007).

No end group written: not given here.

The experiment addresses human class II major histocompatibility complex DR molecules (HLA-DR) on EBV-transformed B cells (human (endogenous in EBV-transformed B …, UniProt P01903 26-254; P01911 30-266). As to the kind of experiment: flow cytometry on cells; 3x10^5 living EBV-transformed B cells incubated with various concentrations of FITC-labeled TP5 in PBS pH 7.4 with 1% BSA, 2 h, 37°C; washed; MFI read; apparent Kd from a double-reciprocal plot of the equilibrium data. To be noted: one partner purified. Background: A flow cytometer gives signals particle by particle.

B1: FITC-labeled thymopentin (TP5) (peptide)
peptide: RKDVY
modifications: also: FITC label, position not given here
notes: thymopentin (TP5), synthetic pentapeptide corresponding to position 32~36 of thymopoietin; also called FITC-labeled TP5; fluorescent-labeled TP5; source: synthetic peptide, conjugated with FITC (Sigma) and purified
Take B1: the Kd is 7.2 µM.
